Test results as given in the supplement of paper PMC10567573.

B1: PLAGL1 (parent)
chain: LELGSTEVLLDHLKAHAEEKPPSG
B2: TFE3 (parent)
chain: FPSDHLGDLGDPFHLGLEDILMEE

Variants of: B1
Experiment: protein stability index of a GFP-peptide fusion (GPS, HEK-293T) (PSI 1-6); higher = more stable
Settings: c terminus: a fixed tail appended
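Further: lentivirally expressed fusions sorted by FACS into six bins by GFP to DsRed ratio, PSI derived from sequencing read proportions per bin multiplied by bin number.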

Protein stability index, by site and new letter:
T6: L 2.84, E 5.49, S 4.71, N 4.76, V 4.24, Y 3.76, I 3.4, Q 5.22, F 3.62, K 5.38, G 4.75, R 4.57, C 4.38, P 4.25, H 5.42, A 3.58, W 2.89, M 3.74
E2: K 4.23, W 2, F 2.15, C 3.84, R 3.4, L 2.27, M 2.81, V 2.49, D 4.03, P 4.67, I 3.18, G 4.81, N 4.69, T 4.16, A 3.53, S 3.37, H 4.03, Q 4.19, Y 2.34
H12: A 3.98, E 5.54, Q 4.82, G 5.16, S 4.9, R 4.37, F 2.71, M 3.06, V 3.26, Y 2.44, C 4.32, D 5.18, W 3, P 5.48, K 3.99, T 4.62, N 5.15, I 3.02, L 2.21
A15: S 4.44, W 3.54, V 4.72, Y 4.04, K 3.87, R 3.89, F 4.18, I 4.24, P 5.41, H 4.37, L 4.83, N 4.73, E 5.05, C 4.04, T 5.14, M 4.48, Q 4.63, D 4.8, G 4.29
L10: E 4.86, V 5.1, I 4.07, G 5.66, N 5.74, P 5.36, A 5.72, K 5.83, M 5.42, R 5.62, T 5.87, W 4.81, S 5.42, Q 5.41, C 5.35, D 5.35, H 5.35, F 5.3, Y 5.26
L1: R 5.29, Q 4.99, T 4.91, S 4.98, M 4.59, G 4.44, P 5.23, C 4.61, W 4.28, E 5.02, K 5.53, A 5.43, V 4.91, Y 4.38, H 5.36, N 5.35, F 4.48, D 5.24, I 3.55
K14: Q 4.59, E 5.5, N 5.04, A 4.93, M 3.6, P 5.32, G 5.39, R 3.5, H 5.15, Y 4.14, T 5.1, C 4.69, W 4.1, V 4.63, S 5.04, F 3.5, L 4.61, D 5.56, I 4.55
E7: G 4.89, W 3.04, Q 4.89, L 3.41, F 3.86, T 4.24, M 3.54, K 3.85, Y 3.77, R 4.81, I 3.69, N 4.67, S 4.81, D 5.27, P 5.07, C 4.27, H 4.39, A 4.78, V 3.82
G4: I 2.58, W 2.2, L 2.77, M 2.25, Y 2.19, D 5.28, V 3.28, E 3.85, F 2.59, T 3.95, P 4.77, K 4.3, Q 3.68, N 4.54, A 2.89, C 3.54, H 3.83, S 4.14, R 3.94
S5: W 2.97, E 3.8, C 4.51, Y 3.33, Q 2.92, A 3.22, R 3.5, F 3.09, L 2.53, T 4.44, G 4.56, V 3.79, D 4.84, N 5.08, K 3.85, I 4.15, P 4.79, H 4.84, M 2.3
D11: A 4, N 4.29, H 3.79, V 1.86, F 1.77, Q 2.17, P 5.43, L 1.79, E 3.56, I 1.25, M 2.2, K 3.65, C 2.36, G 3.56, W 3.03, S 3.54, T 3.07, Y 2.7, R 3.46
L9: S 5.72, Q 5.84, R 4.63, D 4.91, N 5.71, M 4.77, Y 4.83, V 4.97, A 5.08, T 5.58, C 5.04, K 4.99, F 4.79, H 5.15, W 4.11, I 4.45, E 5.92, G 5.6, P 5.57
H16: A 4.24
V8: L 3.21, E 5.29, Q 4.75, F 3.85, N 4.85, T 5, P 4.84, M 3.54, W 3.79, R 4.96, C 4.41, K 4.51, I 3.91, H 4.55, A 4.64, S 4.87, Y 4.62, D 5.01
L13: A 5.38, I 4.97, Q 5.76, T 5.46, D 5.87, W 3.78, V 4.36, G 5.46, H 5.61, Y 3.9, M 5.09, E 5.3, R 5.6, K 5.68, N 5.64, C 4.84, P 5.35, S 5.6, F 4.22
L3: Q 5.55, N 5.67, K 5.19, A 5.17, G 5.74, H 5.4, S 5.72, F 4.33, E 5.8, I 4.74, C 5.21, W 4.49, T 5.18, Y 5.45, V 4.9, D 5.79, P 5.88, R 5.54, M 4.09

Variants of: B2
Experiment: as above
Settings: c terminus: a fixed tail appended

Protein stability index of substitutions, site by site:
F1: Q 4.57
H5: R 3.52, Y 3.18, F 3.28
G10: N 2.97, C 2.93, L 3.05, A 3.41
G7: H 3.11, F 2.69
E23: H 2.86, C 2.03
F13: C 4.62, G 4.97, H 5.09
H14: E 4.36, K 3.7
P12: V 3.5, Y 3.4, T 4.24
L21: F 3.28
E18: T 2.72
I20: S 3.7, W 3.5
E24: P 2.77
P2: L 3.37, W 2.04, C 2.57
D8: M 2.96
D19: M 2.28, A 2.1
S3: G 2.97
L6: Y 2.78, K 3.22
L17: F 3.1, G 3.7, V 3.09, M 2.91
G16: F 2.16
L9: C 3.5, D 4.5, K 3.94
D4: A 2.26, M 2.77, H 1.91, S 2.51, L 2.37, V 2.59
M22: T 3.72, E 4.79
